Experiments:
[1] = biological target: native HIV-1IIIB gp120 (HIV-1 strain IIIB) (UniProt P04578)
[2] = biological target: native HIV-1MN gp120 (HIV-1 strain MN) (UniProt P05877)
[3] = biological target: native HIV-1IIIB gp120 (HIV-1 strain IIIB) (UniProt P04578); remark: listed apart in the source
[4] = biological target: native HIV-1MN gp120 (HIV-1 strain MN) (UniProt P05877); remark: listed apart in the source
[5] = biological target: gp120 of HIV-1 strain RF (HIV-1 strain RF)
[6] = biological target: peptide of amino acids 322-336 of HIV-1MN gp120 (HIV-1 strain MN); assay: peptide ELISA, 500 ng MIgG
[7] = biological target: peptide of amino acids 312-326 of HIV-1MN gp120 (HIV-1 strain MN); assay: peptide ELISA, 500 ng MIgG
[8] = biological target: peptide of amino acids 302-316 of HIV-1MN gp120 (HIV-1 strain MN); assay: peptide ELISA, 500 ng MIgG

monoclonal antibody NM-01, sequence (VH): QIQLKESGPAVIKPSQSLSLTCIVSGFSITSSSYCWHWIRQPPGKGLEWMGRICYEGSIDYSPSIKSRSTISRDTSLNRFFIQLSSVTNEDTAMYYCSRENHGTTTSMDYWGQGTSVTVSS
monoclonal antibody NM-01, sequence (VL): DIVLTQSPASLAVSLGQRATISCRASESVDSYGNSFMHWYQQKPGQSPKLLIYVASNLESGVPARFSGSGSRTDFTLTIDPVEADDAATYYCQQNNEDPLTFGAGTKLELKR

Q: monoclonal antibody NM-01 was tested. Which ID50, MT-2 assay (cell viability by MTT), live IIIB virus [1] did it give?
A: 0.1 µg/mL

Q: And the ID50, MT-2 assay (cell viability by MTT), live MN virus [2]?
A: 2 µg/mL

Q: What about the ID50, syncytium formation of IIIB-infected H9 cells with C8166 cells [3] of the same substance?
A: 3 µg/mL

Q: And the ID50, syncytium formation of MN-infected H9 cells with C8166 cells [4]?
A: 2 µg/mL

Q: And the ID50, syncytium formation of RF-infected cells [5]?
A: 4 µg/mL

Q: Which optical density at 650 nm [6] does the source give for “mouse IgG (polyclonal serum or antibody)” here?
A: 0.042 OD 650 nm

Q: And the optical density at 650 nm [7]?
A: 0.043 OD 650 nm

Q: What about the optical density at 650 nm [8] of the same substance?
A: 0.049 OD 650 nm
